Columns and labels:
recombinant mouse TfR-1 = biological target: T1, recombinant mouse TfR-1 (mouse, UniProt Q62351 89-763); experiment: phage ELISA
T1 construct: Bought recombinant protein; also called mTfR1
Procedure: (§1) After the third round of selection, instead of pooling bacterial colonies, individual phagemid clones were grown in 1 ml of 2TY medium containing glucose and ampicillin in 96-well blocks and used to rescue the phages. After an overnight culturing, bacteria were spun down and an aliquot of the phage supernatant was sent for Sanger sequencing (Genewiz); VNAR CDR3 sequences were identified using BioEdit (a sequence alignment editor). Another aliquot was blocked with 2.5% milk for phage ELISAs. High-binding ELISA plates (Greiner) were coated with 1 μg/ml of recombinant human or mouse TfR-1. The plates were then blocked with 2.5% milk in PBST. Blocked phages were added to the blocked plates and the VNAR-phage clones binding to the antigens were detected with HRP-labelled anti-M13 coat protein antibodies (Sino Biological), and chromogenic TMB substrate (KLM)

recombinant human TfR-1 = biological target: T2, recombinant human TfR-1 (human, UniProt P02786 89-760); experiment: phage ELISA
T2 construct: extracellular domain; also called hTfR1; human transferrin receptor-1
Procedure: as §1

T2 sequence (P02786 89-760): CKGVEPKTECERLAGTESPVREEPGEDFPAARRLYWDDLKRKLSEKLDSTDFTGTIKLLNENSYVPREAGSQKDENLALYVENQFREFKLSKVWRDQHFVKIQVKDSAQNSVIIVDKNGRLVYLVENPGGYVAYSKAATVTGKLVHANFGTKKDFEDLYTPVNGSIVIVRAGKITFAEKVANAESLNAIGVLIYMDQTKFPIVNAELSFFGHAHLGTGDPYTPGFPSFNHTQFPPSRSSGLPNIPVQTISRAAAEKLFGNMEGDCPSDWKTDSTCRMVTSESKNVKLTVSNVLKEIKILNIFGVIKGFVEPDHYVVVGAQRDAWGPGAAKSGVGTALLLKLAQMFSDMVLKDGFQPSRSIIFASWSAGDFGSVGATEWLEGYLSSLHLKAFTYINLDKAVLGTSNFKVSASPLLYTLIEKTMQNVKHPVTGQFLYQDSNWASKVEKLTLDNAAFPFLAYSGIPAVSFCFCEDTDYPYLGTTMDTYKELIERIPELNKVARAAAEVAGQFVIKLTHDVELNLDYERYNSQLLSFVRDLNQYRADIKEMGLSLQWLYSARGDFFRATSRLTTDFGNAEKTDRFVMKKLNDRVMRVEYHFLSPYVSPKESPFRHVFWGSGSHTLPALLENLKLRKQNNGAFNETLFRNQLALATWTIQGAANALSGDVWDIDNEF
T1 sequence (Q62351 89-763 limits assumed): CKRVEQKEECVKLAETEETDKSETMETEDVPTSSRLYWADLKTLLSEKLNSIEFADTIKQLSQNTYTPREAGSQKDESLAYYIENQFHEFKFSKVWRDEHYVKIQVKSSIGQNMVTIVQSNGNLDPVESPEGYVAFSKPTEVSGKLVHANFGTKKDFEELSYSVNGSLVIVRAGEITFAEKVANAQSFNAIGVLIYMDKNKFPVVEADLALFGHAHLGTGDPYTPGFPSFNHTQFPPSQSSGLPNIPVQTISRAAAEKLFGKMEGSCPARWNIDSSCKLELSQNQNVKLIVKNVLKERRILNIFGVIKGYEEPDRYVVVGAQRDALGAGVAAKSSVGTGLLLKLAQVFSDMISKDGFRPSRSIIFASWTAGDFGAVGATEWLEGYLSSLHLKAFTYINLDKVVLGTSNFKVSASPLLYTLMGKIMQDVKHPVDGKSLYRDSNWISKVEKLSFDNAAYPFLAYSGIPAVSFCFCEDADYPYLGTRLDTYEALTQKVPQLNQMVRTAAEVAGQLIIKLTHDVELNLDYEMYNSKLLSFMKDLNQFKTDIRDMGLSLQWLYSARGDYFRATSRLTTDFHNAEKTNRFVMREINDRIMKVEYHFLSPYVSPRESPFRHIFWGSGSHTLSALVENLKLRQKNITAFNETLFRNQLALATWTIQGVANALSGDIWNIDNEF

Binder | binding result (recombinant mouse TfR-1) | binding result (recombinant human TfR-1)
Clone 1 (VNAR, VNAR on phage) VNAR: ARVDQTPQTITKETGESLTINCVLRDNNCALSTTYWYRKKSGSTNEESISLGGRYVETVNSGSKSFSLRINDLTVEDSGTYRCNVSDVVSCDDGWNWLDVYGGGTAVTVNA | binds | binds
Clone 10 (VNAR, VNAR on phage) VNAR: ARVDQTPQTITKETGESLTINCVLRDSNCALSNLYWYRKKSGSTNEESISLGGRYVETVNSGSKSFSLRINDLTVEDSGTYRCNVVQYPTAKCRQVDVYGGGTAVTVNA | binds | binds
Clone 11 (VNAR, VNAR on phage) VNAR: ARVDQTPQTITKETGESLTINCVLRDSNCALPSTYWYRKKSGSTNEESISKGGRYVETVNSGSKSFSLRINDLTVEDSGTYRCNVQWLWSFSCLPCVEDVYGGGTVVTVNA | binds | binds
Clone 12 (VNAR, VNAR on phage) VNAR: ARVDQTPRSVTKETGESLTINCVLRDASYELGSTCWYRKKSGSTNEESISKGGRYVETVNSGSKSFSLRINDLTVEDGGTYRCGAWSRLSSSWGCDVGLQCMGCWDLWAACGDGTAVTVNA | binds | binds
Clone 13 (VNAR, VNAR on phage) VNAR: ARVDQTPQTITKQTGESLTINCVLRDSNCALSSTYWYRKKSGSTNEESISLGGRYVETVNSGSKSFSLRINDLTVEDSGTYRCNVRRLQAWGSCRGGDVYGGGTVVTVNA | binds | binds
Clone 14 (VNAR, VNAR on phage) VNAR: ARVDQTPQTITKETGESLTINCVLRDSNCALPSTYWYRKKSGSTNEESISKGGRYVETVNSGSKSFSLRINDLTVKDSGTYRCNVMVFQVSGDYSRLEDVYGGGTVVTVNA | binds | binds
Clone 15 (VNAR, VNAR on phage) VNAR: ARVDQTPRSVTKETGESLTINCVLRDASYELGSTCWYRKKSGSTNEESISKGGRYVETVNSGSKSFSLRINDLTVEDGGTYRCGAPRWQMGGQWCDGGTAACRSGMAEVAACGDGTAVTVNA | binds | binds
Clone 16 (VNAR, VNAR on phage) VNAR: ARVDQTPQTITKETGESLTINCVLRDSNCALSSTYWYRKKSGSTNEENISKGGRYVETVNSGSKSFSLRINDLTVEDSGTYRCKVQSAQGMGLNGCKPGRVDVYGDGTAVTVNA | binds | binds
Clone 17 (VNAR, VNAR on phage) VNAR: ARVDQTPQTITKETGESLTINCVLRDSNCALSNLYWYRKKSGSTNEESISLGGRYVETVNSGSKSFSLRINDITVEDSGRYRCNVYNFFTYQCRWFQSDVYGDGTAVTVNA | binds | binds
Clone 18 (VNAR, VNAR on phage) VNAR: ARVDQTPQTITKETGESLTINCVLRDSNCALSSTYWYRKKSDSTNEESISKGGRYVETVNSGSKSFSLRINDLTVEDSGTYRCKVCTGMSCPCLGRRQTDVYGGGTAVTVNA | binds | binds
Clone 19 (VNAR, VNAR on phage) VNAR: ARVDQTPQTITKETGESLTINCVLRDSNCALSSTYWYRKKSGSTNEESISKGGRYVETVNSGSKSFSLRINDLTVEDSGTYRCNVGQAQRLRSNVDDVYGGGTVVTVNA | binds | binds
Clone 2 (VNAR, VNAR on phage) VNAR: ARVDQTPQTITKETGESLTINCVLRDSNCELSSTYWYRKKSDSTNEASISKGGRYVETVNSGSKSFSLKINDLTVEDSGTYRCNVFTSDSYDLGDVYGGGTVVTVNA | binds | binds
Clone 20 (VNAR, VNAR on phage) VNAR: ARVDQTPRSVTKETGESLTINCVLRDSNCALPSTYWYRKKSGSTNEESISKGGRYVETVNSGSKSFSLRINDLTVKDSGTYRCNVKWDCRYQCICVSADVYGDGTAVTVNA | binds | binds
Clone 21 (VNAR, VNAR on phage) VNAR: ARVDQTPRVTKETGESLTINCVLRDNNCALSTTYWYRKKSGSTNEENISKGGRYVETVNSGSKSFSLRINDLTVEDSGTYRCNVYMTACSNDMDVYGGGTVVTVNA | binds | binds
Clone 22 (VNAR, VNAR on phage) VNAR: ARVDQTPQTITKETGESLTINCVLRDSNCALSNLYWYRKKSGSTNEESISLGGRYVETVNSGSKSFSLRINDLTVEDSGTYRCNVQQQSSGTFYDVYGGGTAVTVNA | binds | binds
Clone 23 (VNAR, VNAR on phage) VNAR: ARVDQTPQTVTKETGESLTINCVLRDSNCDLSRTYWYRKKSGSTNEESISKGGRYVETVNSGSKSFSLRINDLTVEDSGTYRCNVGGDLCGDQRDVYGGGTAVTVNA | binds | binds
Clone 24 (VNAR, VNAR on phage) VNAR: ARVDQTPQTITKETGESLTINCVLRDSNCALPSTYWYRKKSGSTNEESISKGGRYVETVNSGSKSFSLRINDLTVKDSGTYRCKVGPRCMGPNWQSYSCDVYGGGTVVTVNA | binds | binds
Clone 25 (VNAR, VNAR on phage) VNAR: ARVDQTPRSVTKETGESLTINCVLRDSICALSSTYWYRKKSGSTNEESISKGGRYVETVNSGSKSFSLKINDLTVEDSGTYRCNVFTEMRGRCWAWGVDVYGDGTAVTVNA | binds | binds
Clone 26 (VNAR, VNAR on phage) VNAR: ARVDQTPQTITKETGESLTINCVLRDSNCALSSTLWYRTKSGSRNEESISKGGRYVETVNSGSKSFSLKINDLTVEDSGTYRCNVCMGVTCNHVPDVYGGGTVVTVNA | binds | binds
Clone 27 (VNAR, VNAR on phage) VNAR: ARVDQTPRSVTKETGESLTINCVLRDASYALGSTCWYRKKSGSTNEESISKGGRYVETVNSGSKSFSLRINDLTVEDSGTYRCNVSRIGQYLCQARSDVYGDGTAVTVNA | binds | binds
Clone 28 (VNAR, VNAR on phage) VNAR: ARVDQTPQTITKETGESLTINCVLRDSICALSSTHWYRKKSGSTNEESISKGGRYVETVNSGSKSFSLRINDLTVEDSGTYRCNVRTAQGTLCGDVSDVYGDGTAVTVNA | binds | binds
Clone 29 (VNAR, VNAR on phage) VNAR: ARVDQTPQTITKETGESLTINCVLRDSNCALSSTLWYRTKSGSRNEESISKGGRYVETVNSGSKSFSLRINDLTVEDSGTYRCNVQQGCESYNWMVDVYGGGTAVTVNA | binds | binds
Clone 3 (VNAR, VNAR on phage) VNAR: ARVDQTPQTITKETGESLTINCVLRDSNCALPSTYWYRKKSGSTNEESISKGGRYVETVNSGSKSFSLRINDLTVKDSGTYRCNVVQEPYSCKGRDDVYGGGTAVTVNA | binds | binds
Clone 30 (VNAR, VNAR on phage) VNAR: ARVDQTPQTITKETGESLTINCVLRDSNCALSSTLWYRTKSGSRNEESISKGGRYVETVNSGSKSFSLKINDLTVEDSGTYRCNVWFADYYWFQYDVYGGGTAVTVNA | binds | binds
Clone 31 (VNAR, VNAR on phage) VNAR: ARVDQTPQTITKETGESLTINCVLRDSNCALSSTYWYRKKSDSTNEENISKGGRYVETVNSGSKSFSLKINDLTVEDSGTYRCNVQPLFCDLWLDVYGGGTVVTVNA | binds | binds
Clone 4 (VNAR, VNAR on phage) VNAR: ARVDQTPQTITKETGESLTINCVLRDSNCALPSTYWYRKKSGSTNEESISKGGRYVETVNSGSKSFSLRINDLTVKDSGTYRCKVMSQEVRWQMTCKIVVMDVYGGGTVVTVNA | binds | binds
Clone 5 (VNAR, VNAR on phage) VNAR: ARVDQTPQTITKETGESLTINCVLRDSNCALSSTLWYRTKSGSRNEESISKGGRYVETVNSGSKSFSLRINDLTVKDSGTYRCNVQQYDCIASFDVYGDGTAVTVNA | binds | binds
Clone 6 (VNAR, VNAR on phage) VNAR: ARVDQTPQTVTKETGESLTINCVLRDSNCALSSTLWYRTKSGSRNEESISKGGRYVETVNSGSKSFSLRINDLTVEDSGTYRCNVCSNYCPIKDDVYGDGTAVTVNA | binds | binds
Clone 39 (VNAR, VNAR on phage) VNAR: ARVDQTPQTITKETGESLTINCVLRDSNCELSSTYWYRKKSGSTNEESISLGGRYVETVNSGSKSFSLRINDLTVEDSGTYRCNVQSAMLMLCLSRFDVYGGGTAVTVNA | no binding | 
Clone 40 (VNAR, VNAR on phage) VNAR: ARVDQTPQTITKETGESLTINCVLRDSNCALSSTYWYRKKSGSTNEESISKGGRYVETVNSGSKSFSLRINDLTVEDSGTYRCKVVQFEKDCQGLLRQTNDVYGGGTVVTVNA | no binding | 

Source: patent US20210395381A1 (OSSIANIX, published 2021)
